Test results: patent US20100172925A1, “HLA-A2-RESTRICTED T-CELL EPITOPES OF THE RESPIRATORY SYNCYTIAL VIRUS FUSION PROTEIN AS PEPTIDE-BASED VACCINES” (priority 2009, published 2010)

Target: HLA-A*0201 molecule on human T2 cells (human)
Experiment: not given

Binder	MFI above baseline (% higher than the baseline)
TLLLWVLLL (modifications not checked) [RSV F peptide No. 1 (F5-13)]	10

Target: HLA-A*0201 molecule on human T2 cells (human)
Experiment: T2-based binding assay, flow cytometry with FITC anti-HLA-A2

Binder	MFI ratio (ratio to the negative control)
KIMTSKTDV (modifications not checked) [RSV F peptide No. 17 (F417-425)]	0.91

Target: HLA-A*0201 molecule on human T2 cells (human)
Experiment: T2 cell-stabilization assay, flow cytometry with FITC anti-HLA-A2, peptide 50 µg/mL

Binder	MFI above baseline (% higher than the baseline)	MFI ratio (fold of the negative control)
FLLGVGSAI (modifications not checked) [RSV F peptide No. 6 (F163-171)]	10	–
ALLSTNKAV (modifications not checked) [RSV F peptide No. 8 (F193-201)]	10	–
KVLDLKNYI (modifications not checked) [RSV F peptide No. 13 (F214-222)]	10	–
SVGNTLYYV (modifications not checked) [RSV F peptide No. 18 (F474-482)]	10	–
SLIAVGLLL (modifications not checked) [RSV F peptide No. 25 (F563-571)]	10	–
AITTILAAV (modifications not checked) [RSV F peptide No. 3 (F33-41)]	–	1.5
LLSTNKAVV (modifications not checked) [RSV F peptide No. 9 (F194-202)]	–	1.5
YMLTNSELL (modifications not checked) [RSV F peptide No. 14 (F273-281)]	–	1.5
KLMSNNVQI (modifications not checked) [RSV F peptide No. 15 (F295-303)]	–	1.5
LMSNNVQIV (modifications not checked) [RSV F peptide No. 16 (F296-304)]	–	1.5
VILLSLIAV (modifications not checked) [RSV F peptide No. 23 (F559-567)]	–	1.5
LLSLIAVGL (modifications not checked) [RSV F peptide No. 24 (F561-569)]	–	1.5
